B1: Cdc48 ATPase (wild type, untagged) (enzyme, S. cerevisiae, UniProt P25694 1-835, looked up)
chain: MGEEHKPLLDASGVDPREEDKTATAILRRKKKDNMLLVDDAINDDNSVIAINSNTMDKLELFRGDTVLVKGKKRKDTVLIVLIDDELEDGACRINRVVRNNLRIRLGDLVTIHPCPDIKYATRISVLPIADTIEGITGNLFDVFLKPYFVEAYRPVRKGDHFVVRGGMRQVEFKVVDVEPEEYAVVAQDTIIHWEGEPINREDEENNMNEVGYDDIGGCRKQMAQIREMVELPLRHPQLFKAIGIKPPRGVLMYGPPGTGKTLMARAVANETGAFFFLINGPEVMSKMAGESESNLRKAFEEAEKNAPAIIFIDEIDSIAPKRDKTNGEVERRVVSQLLTLMDGMKARSNVVVIAATNRPNSIDPALRRFGRFDREVDIGIPDATGRLEVLRIHTKNMKLADDVDLEALAAETHGYVGADIASLCSEAAMQQIREKMDLIDLDEDEIDAEVLDSLGVTMDNFRFALGNSNPSALRETVVESVNVTWDDVGGLDEIKEELKETVEYPVLHPDQYTKFGLSPSKGVLFYGPPGTGKTLLAKAVATEVSANFISVKGPELLSMWYGESESNIRDIFDKARAAAPTVVFLDELDSIAKARGGSLGDAGGASDRVVNQLLTEMDGMNAKKNVFVIGATNRPDQIDPAILRPGRLDQLIYVPLPDENARLSILNAQLRKTPLEPGLELTAIAKATQGFSGADLLYIVQRAAKYAIKDSIEAHRQHEAEKEVKVEGEDVEMTDEGAKAEQEPEVDPVPYITKEHFAEAMKTAKRSVSDAELRRYEAYSQQMKASRGQFSNFNFNDAPLGTTATDNANSNNSAPSGAGAAFGSNAEEDDDLYS

What was measured:
[1] = target: T1, SBP-tagged Ufd1/Npl4 heterodimer (SBP tag on Ufd1) (S. cerevisiae, UniProt P53044 1-361; P33755 1-580); test: pull-down
T1 sequence (looked up) 1: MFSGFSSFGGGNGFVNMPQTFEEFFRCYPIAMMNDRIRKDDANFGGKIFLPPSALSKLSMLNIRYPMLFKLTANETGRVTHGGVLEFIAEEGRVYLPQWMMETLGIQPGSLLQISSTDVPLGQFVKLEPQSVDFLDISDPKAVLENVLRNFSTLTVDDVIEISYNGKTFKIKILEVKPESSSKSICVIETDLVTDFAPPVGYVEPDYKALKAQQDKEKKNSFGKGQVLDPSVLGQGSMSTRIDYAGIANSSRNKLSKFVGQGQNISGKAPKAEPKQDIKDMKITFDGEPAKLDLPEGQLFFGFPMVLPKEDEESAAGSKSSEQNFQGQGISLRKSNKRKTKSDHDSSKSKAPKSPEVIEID
T1 sequence (looked up) 2: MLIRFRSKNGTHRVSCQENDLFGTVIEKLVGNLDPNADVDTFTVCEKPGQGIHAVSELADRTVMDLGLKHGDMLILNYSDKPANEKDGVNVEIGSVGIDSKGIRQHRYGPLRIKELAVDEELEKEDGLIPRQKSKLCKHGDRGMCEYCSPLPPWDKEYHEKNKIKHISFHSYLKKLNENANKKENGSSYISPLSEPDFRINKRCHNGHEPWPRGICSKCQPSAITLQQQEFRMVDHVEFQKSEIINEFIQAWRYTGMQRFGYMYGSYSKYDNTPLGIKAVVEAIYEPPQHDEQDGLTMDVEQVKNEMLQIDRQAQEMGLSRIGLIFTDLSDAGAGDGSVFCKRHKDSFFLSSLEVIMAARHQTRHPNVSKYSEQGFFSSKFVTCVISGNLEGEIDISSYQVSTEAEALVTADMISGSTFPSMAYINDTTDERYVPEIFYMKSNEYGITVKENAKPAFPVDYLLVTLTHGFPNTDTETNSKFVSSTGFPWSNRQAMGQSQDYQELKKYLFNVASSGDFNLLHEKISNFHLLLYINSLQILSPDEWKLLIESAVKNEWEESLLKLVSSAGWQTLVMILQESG

[2] = target: B1; test: pull-down

| Binder | binding result [1] | binding result [2] |
| --- | --- | --- |
| B1 | binds | – |
| Otu1 (wild type) (enzyme, UniProt P43558 1-301, looked up) MKLKVTGAGINQVVTLKQDATLNDLIEHINVDVKTMRFGYPPQRINLQGEDASLGQTQLDELGINSGEKITIESSDSNESFSLPPPQPKPKRVLKSTEMSIGGSGENVLSVHPVLDDNSCLFHAIAYGIFKQDSVRDLREMVSKEVLNNPVKFNDAILDKPNKDYAQWILKMESWGGAIEIGIISDALAVAIYVVDIDAVKIEKFNEDKFDNYILILFNGIHYDSLTMNEFKTVFNKNQPESDDVLTAALQLASNLKQTGYSFNTHKAQIKCNTCQMTFVGEREVARHAESTGHVDFGQNR | – | binds |

From paper PMC5751438 (Cell, 2017)
